# Measurements published in patent publication US20160053277A1, “Compositions Having Dicamba Decarboxylase Activity and Methods of Use” (PIONEER HI-BRED INTERNATIONAL, INC., priority 2013, published 2016).
# What was measured:
# [1] = Saturation mutagenesis of SEQ ID NO:109: dicamba decarboxylation activity of point mutants (carbon dioxide released); details: for Fold Activity: decarboxylation activity (carbon dioxide released) of point mutant compared with unmutated backbone protein, backbone SEQ ID NO: 109
# [2] = 14C assay with IPTG-induced recombinant E. coli cells: 14CO2 captured from [14C]-carboxyl-labeled dicamba; details: for decarboxylation activity of dicamba: among the 108 sequences tested, recombinant E. coli cells; for Enzymatic Detection level: dicamba decarboxylation activity of the protein of the given SEQ ID NO, High / Low / No; for Dicamba Decarboxylase Activity: induced recombinant E. coli cells, [14C]-carboxyl-labeled dicamba, 14CO2 capture
# [3] = dicamba decarboxylation activity of point mutants of SEQ ID NO: 109, relative to unchanged template
# [4] = point mutation in SEQ ID NO: 109
Molecule,Fold Activity [1],"Average Activity (Fold of SEQ ID NO: 109) [1, 3]","Average Activity (Fold of SEQ ID NO: 109) [1, 4]",further results
"131 (protein, Lactobacillus Acidophilus) MSLTKIDAYAHILPAKYYQKMLSVEPNIPNMFPFIKIKTLMDLDERLTKWPDQNTKQVISLANISPEDFTDSKTSAELCQSANEELSNLVDQHPGKFAGAVAILPMNNIESACKVISSIKDDENLVGAQIFTRHLGKSIADKEFRPVLAQAAKLHVPLWMHPVFDARKPDNNLVFSWEYELSQAMLQLVQSDLFQDYPNLKILVHHAGAMVPFFSGRIDHILDEKHAQDFKKFYVDTAILGNTPALQLAIDYYGIDHVLFGTDAPFAVMPSGADQIITQAINDLTISDKDKQKIFHDNYYSLIKEGHHHHHH",1.6,–,–,–
"D42A: point mutant of SEQ ID NO: 109 (protein, Dicamba decarboxylase variant clone: DC.4.032) MAQGKVALEEHFAIPETLQDSAGFVPGDYWKELQHRLLDIQATRLKLMDAHGIETMILSLNAPAVQAIPDRRKAIEIARRANDVLAEECAKRPDRFLAFAALPLQDPDAATEELQRCVNDLGFVGALVNGFSQEGDGQTPLYYDLPQYRPFWGEVEKLDVPFYLHPRNPLPQDSRIYDGHPWLLGPTWAFAQETAVHALRLMASGLFDEHPRLNIILGHMGEGLPYMMWRIDHRVAWVKLPPRYPAKRRFMDYFNENFHITTSGNFRTQTLIDAILEIGADRILFSTDWPFENIDHASDWFNATSIAEADRVKIGRTNARRLFKLDGA",–,2.0 Fold of SEQ ID NO: 109,–,–
"A50K: point mutant of SEQ ID NO: 109 (protein, Dicamba decarboxylase variant clone: DC.4.032) MAQGKVALEEHFAIPETLQDSAGFVPGDYWKELQHRLLDIQDTRLKLMDKHGIETMILSLNAPAVQAIPDRRKAIEIARRANDVLAEECAKRPDRFLAFAALPLQDPDAATEELQRCVNDLGFVGALVNGFSQEGDGQTPLYYDLPQYRPFWGEVEKLDVPFYLHPRNPLPQDSRIYDGHPWLLGPTWAFAQETAVHALRLMASGLFDEHPRLNIILGHMGEGLPYMMWRIDHRVAWVKLPPRYPAKRRFMDYFNENFHITTSGNFRTQTLIDAILEIGADRILFSTDWPFENIDHASDWFNATSIAEADRVKIGRTNARRLFKLDGA",–,1.9 Fold of SEQ ID NO: 109,1.9 Fold of SEQ ID NO: 109,–
"T43C: point mutant of SEQ ID NO: 109 (protein, Dicamba decarboxylase variant clone: DC.4.032) MAQGKVALEEHFAIPETLQDSAGFVPGDYWKELQHRLLDIQDCRLKLMDAHGIETMILSLNAPAVQAIPDRRKAIEIARRANDVLAEECAKRPDRFLAFAALPLQDPDAATEELQRCVNDLGFVGALVNGFSQEGDGQTPLYYDLPQYRPFWGEVEKLDVPFYLHPRNPLPQDSRIYDGHPWLLGPTWAFAQETAVHALRLMASGLFDEHPRLNIILGHMGEGLPYMMWRIDHRVAWVKLPPRYPAKRRFMDYFNENFHITTSGNFRTQTLIDAILEIGADRILFSTDWPFENIDHASDWFNATSIAEADRVKIGRTNARRLFKLDGA",–,1.7 Fold of SEQ ID NO: 109,1.7 Fold of SEQ ID NO: 109,–
"D42S: point mutant of SEQ ID NO: 109 (protein, Dicamba decarboxylase variant clone: DC.4.032) MAQGKVALEEHFAIPETLQDSAGFVPGDYWKELQHRLLDIQSTRLKLMDAHGIETMILSLNAPAVQAIPDRRKAIEIARRANDVLAEECAKRPDRFLAFAALPLQDPDAATEELQRCVNDLGFVGALVNGFSQEGDGQTPLYYDLPQYRPFWGEVEKLDVPFYLHPRNPLPQDSRIYDGHPWLLGPTWAFAQETAVHALRLMASGLFDEHPRLNIILGHMGEGLPYMMWRIDHRVAWVKLPPRYPAKRRFMDYFNENFHITTSGNFRTQTLIDAILEIGADRILFSTDWPFENIDHASDWFNATSIAEADRVKIGRTNARRLFKLDGA",–,2.0 Fold of SEQ ID NO: 109,–,–
"D42M: point mutant of SEQ ID NO: 109 (protein, Dicamba decarboxylase variant clone: DC.4.032) MAQGKVALEEHFAIPETLQDSAGFVPGDYWKELQHRLLDIQMTRLKLMDAHGIETMILSLNAPAVQAIPDRRKAIEIARRANDVLAEECAKRPDRFLAFAALPLQDPDAATEELQRCVNDLGFVGALVNGFSQEGDGQTPLYYDLPQYRPFWGEVEKLDVPFYLHPRNPLPQDSRIYDGHPWLLGPTWAFAQETAVHALRLMASGLFDEHPRLNIILGHMGEGLPYMMWRIDHRVAWVKLPPRYPAKRRFMDYFNENFHITTSGNFRTQTLIDAILEIGADRILFSTDWPFENIDHASDWFNATSIAEADRVKIGRTNARRLFKLDGA",–,2.4 Fold of SEQ ID NO: 109,2.4 Fold of SEQ ID NO: 109,–
"G52E: point mutant of SEQ ID NO: 109 (protein, Dicamba decarboxylase variant clone: DC.4.032) MAQGKVALEEHFAIPETLQDSAGFVPGDYWKELQHRLLDIQDTRLKLMDAHEIETMILSLNAPAVQAIPDRRKAIEIARRANDVLAEECAKRPDRFLAFAALPLQDPDAATEELQRCVNDLGFVGALVNGFSQEGDGQTPLYYDLPQYRPFWGEVEKLDVPFYLHPRNPLPQDSRIYDGHPWLLGPTWAFAQETAVHALRLMASGLFDEHPRLNIILGHMGEGLPYMMWRIDHRVAWVKLPPRYPAKRRFMDYFNENFHITTSGNFRTQTLIDAILEIGADRILFSTDWPFENIDHASDWFNATSIAEADRVKIGRTNARRLFKLDGA",–,3.1 Fold of SEQ ID NO: 109,3.1 Fold of SEQ ID NO: 109,–
"44 (protein, listed as Mycobacterium avium) MARIITVEEHFQHPEVSARVAELTGPAVEGLAEFGNAFSLDPDSTARLGGNRLAHMDQVGIDVQVVSHGNGSPGTLQHPEAVELCRRVNNDLAAQIAENPDRFRGFATLPLYDPAAAAEELRRCVGDLGFVGALIAGSYDGLFLDDERFDPILTAAEAVDFPIYVHPGLPEAPVSQRYYAGSWPASVHMMFSGPAFGWHAEAGIHIVRLILSGALDRHPTLKLLSGHWGELAAFYLERLDETLGLLPTGLERAPSDYYRQQVWITPSGMYNQNQLNFMTAELGAQRIIYSEDFPYVVRDNVSTFLEQAGLSEADTHAIAHTNAEALLRI",0.7,–,–,decarboxylation activity of dicamba [2]: showed decarboxylation activity of dicamba; Enzymatic Detection level [2]: High; Dicamba Decarboxylase Activity [2]: High
"46 (protein, listed as Rhodococcus opacus) MARIITLEEHYLDPAIAAASAPLARELSPDFAAAYDPASGLSYTPSAQVLQDLGQRRIADMDTHGISMQVLSCLTTQQVPADVAPDLVRAANDTAAAAVRAHPDRFAAFAALPTTAPDAAATELARCIDDLGFVGTMINGRTDGEFLDAPRFDPILATAAARNVPIYLHPAVPPRATSDSNYAGLAPLVTARLQTSAWGWHQETAVHFLHLVLSGVLDRYPNLQFILGHWGEMIPFYLDRLDEALPQAVTNLDRTISDYVRENVYITPSGMFNQAQLQYCVETLGVDRILYSVDYPFIGNDGAVSFLDEANLPDEAKHQIAHQNTEKLLGL",1.1,–,–,decarboxylation activity of dicamba [2]: showed decarboxylation activity of dicamba; Enzymatic Detection level [2]: High; Dicamba Decarboxylase Activity [2]: High
"43 (protein, listed as Rhizobium leguminosarum) MAQGKIALEEHFAIPETLQDSAGFVPGDYWTELSARLLDIQDKRLRLMDTHGIEKMILSLNAPAVQAIPDKAKAVEISRRANDFLAEQCVKNPNRFLGFAALPLQDPDAATQELQRCVTTMGFVGALVNGFSQEGDGTTPLYYDLPQYRPFWAEVEKLDVPFYLHPRNPLPQDSRIYAGHSWLMGPTWAFAQETAVHALRLMGSGLFDEHPALRIIVGHMGEGLPYMMWRIDNRNAWVKVEKSYPAKRPIADYFNENFYITTSGNFRTQSLIDAMLEIGADRILFSADWPFENVDHAANWFDSATISEADRLKIGRTNAVSLFKLDR",1,–,–,decarboxylation activity of dicamba [2]: showed decarboxylation activity of dicamba; Enzymatic Detection level [2]: High; Dicamba Decarboxylase Activity [2]: High
"132 (protein, Deinococcus Radiodurans) SLLRFSAVSRHHRGASIDPMTFSEATTPDALTPDAHTPRLLTCDVLYTGMGGAQSPGGVVVVGETVAAAGHPDELRRQYPHAAEERAGAVIAPPPVNAHTHLDMSAYEFQALPYFQWIPEVVIRGRHLRGVAAAQAGADTLTRLGAGGVGDIVWAPEVMDALLAREDLSGTLYFEVLNPFPDKADEVFAAARTHLERWRRLERPGLRLGLSPHTPFTVSHRLMRLLSDYAAGEGLPLQIHVAEHPTELEMFRTGGGPLWDNRMPALYPHTLAEVIGREPGPDLTPVRYLDELGVLAARPTLVHMVNVTPDDIARVARAGCAVVTCPRSNHHLECGTFDWPAFAAAGVEVALGTDSVASGETLNVREEVTFARQLYPGLDPRVLVRAAVKGGQRVVGGRTPFLRRGETWQEGFRWELSRDL",1.6,–,–,–
"130 (protein, Staphylococcus Aureus) MGSSHHHHHHSSGRENLYFQGMKSITFEEHYVIEDIQKETMNAISADPKGVPMKVMLEGLEKKTGFTNADELSHHDERIQFMNNQDVQIQVLSYGNGSPSNLVGQKAIELCQKANDQLANYIAQYPNRFVGFATLPINEPEAAAREFERCINDLGFKGALIMGRAQDGFLDQDKYDIIFKTAENLDVPIYLHPAPVNSDIYQSYYKGNYPEVTAATFACFGYGWHIDVGIHAIHLVLSGIFDRYPKLNMIIGHWGEFIPFFLERMDEALFAEHLNHSVSYYFKNSFYITPSGMLTKPQFDLVKKEVGIDRILYAADYPYIEPEKLGVFLDELGLTDEEKEKISYTNGAKLLGLSSNN",1.2,–,–,–
